Laboratory results: US20240343771A1 (Chugai, published 2024)
Residue numbers refer to the chain shown, from its start. Numbers in names are those of the source.

T1: human IL-12 (human, UniProt P29460 23-328; P29459 23-219)
T1 construct: also called Interleukin-12
T1 sequence 1: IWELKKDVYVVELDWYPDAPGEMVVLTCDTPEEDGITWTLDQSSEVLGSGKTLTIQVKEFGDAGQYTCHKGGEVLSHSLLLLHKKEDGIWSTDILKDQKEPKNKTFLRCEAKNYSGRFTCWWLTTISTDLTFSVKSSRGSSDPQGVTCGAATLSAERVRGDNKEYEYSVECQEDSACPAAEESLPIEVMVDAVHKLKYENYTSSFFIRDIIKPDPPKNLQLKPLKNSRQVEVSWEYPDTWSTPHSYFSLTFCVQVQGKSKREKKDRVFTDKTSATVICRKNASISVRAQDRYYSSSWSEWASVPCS
T1 sequence 2: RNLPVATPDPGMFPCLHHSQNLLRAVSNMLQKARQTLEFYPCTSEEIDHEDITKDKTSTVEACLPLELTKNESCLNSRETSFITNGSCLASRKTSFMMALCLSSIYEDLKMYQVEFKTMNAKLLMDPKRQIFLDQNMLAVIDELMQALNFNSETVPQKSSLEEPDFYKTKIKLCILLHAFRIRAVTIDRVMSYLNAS

B1: Anti-IL-12 antibody Ab1 (Ab101H-12aa-C8/Ab102L-SK1) (antibody)
heavy: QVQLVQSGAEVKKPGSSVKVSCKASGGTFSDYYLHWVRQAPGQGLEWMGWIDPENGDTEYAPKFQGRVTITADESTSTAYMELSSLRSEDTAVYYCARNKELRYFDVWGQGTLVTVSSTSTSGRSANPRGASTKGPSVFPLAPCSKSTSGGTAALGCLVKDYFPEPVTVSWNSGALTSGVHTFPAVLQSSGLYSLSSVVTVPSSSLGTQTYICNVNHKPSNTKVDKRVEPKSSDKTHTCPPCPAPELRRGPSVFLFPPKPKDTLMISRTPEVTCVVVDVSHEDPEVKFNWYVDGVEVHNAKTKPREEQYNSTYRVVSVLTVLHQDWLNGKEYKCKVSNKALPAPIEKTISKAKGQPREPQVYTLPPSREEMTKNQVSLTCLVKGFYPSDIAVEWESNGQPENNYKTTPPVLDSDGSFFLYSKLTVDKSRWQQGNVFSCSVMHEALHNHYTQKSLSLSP
light: DIVMTQSPLSLPVTPGEPASISCRASQSISINLHWYQQKPGQAPRLLIYFASQSISGVPSRFSGSGSGTDFTLTISSLQPEDFATYYCQQSNSFPLTFGQGTKVEIKRTVAAPSVFIFPPSDEQLKSGTASVVCLLNNFYPREAKVQWKVDNALQSGNSQESVTEQDSKDSTYSLSSTLTLSKADYEKHKVYACEVTHQGLSSPVTKSFNRGEC
notes: Homodimer of light chain and heavy chain; also called -/- (control)
B2: Anti-IL-12 antibody Ab1 variant F100aI VH/L46Q, Y49A VL (antibody, name in Kabat numbering, V domains shown)
VH: QVQLVQSGAEVKKPGSSVKVSCKASGGTFSDYYLHWVRQAPGQGLEWMGWIDPENGDTEYAPKFQGRVTITADESTSTAYMELSSLRSEDTAVYYCARNKELRYIDVWGQGTLVTVSS
VL: DIVMTQSPLSLPVTPGEPASISCRASQSISINLHWYQQKPGQAPRQLIAFASQSISGVPSRFSGSGSGTDFTLTISSLQPEDFATYYCQQSNSFPLTFGQGTKVEIKR
notes: Ab1 with VH/VL interface substitutions; Kabat numbering
B3: Anti-IL-12 antibody Ab1 variant F100aI VH/A43Q, L46Q, Y49A VL (antibody, name in Kabat numbering, V domains shown)
VH: B2 VH
VL: B2 VL with A43Q
notes: as for B2
B4: Anti-IL-12 antibody Ab1 variant -/P44S VL (antibody, V domains shown)
VH: B2 VH with I105F
VL: B2 VL with P44S, Q46L, A49Y
notes: as for B2
B5: Anti-IL-12 antibody Ab1 variant V37S VH/Y49A, F98L VL (antibody, name in Kabat numbering, V domains shown)
VH: B2 VH with V37S, I105F
VL: B2 VL with Q46L, F98L
notes: as for B2
B6: Anti-IL-12 antibody Ab1 variant -/Y49A VL (antibody, V domains shown)
VH: B2 VH with I105F
VL: B2 VL with Q46L
notes: as for B2
B7: Anti-IL-12 antibody Ab1 variant L45A VH/- (antibody, name in Kabat numbering, V domains shown)
VH: B2 VH with L45A, I105F
VL: B2 VL with Q46L, A49Y
notes: as for B2
B8: Anti-IL-12 antibody Ab1 variant L45Q VH/L46Q, Y49A VL (antibody, name in Kabat numbering, V domains shown)
VH: B2 VH with L45Q, I105F
VL: B2 VL
notes: as for B2
B9: Anti-IL-12 antibody Ab1 variant F100aI VH/L46Q, Y49A, Y87M VL (antibody, name in Kabat numbering, V domains shown)
VH: B2 VH
VL: B2 VL with Y87M
notes: as for B2
B10: Anti-IL-12 antibody Ab1 variant -/Y87M VL (antibody, V domains shown)
VH: B2 VH with I105F
VL: B2 VL with Q46L, A49Y, Y87M
notes: as for B2
B11: Anti-IL-12 antibody Ab1 variant F100aI VH/Y49A, F98L VL (antibody, name in Kabat numbering, V domains shown)
VH: B2 VH
VL: B2 VL with Q46L, F98L
notes: as for B2
B12: Anti-IL-12 antibody Ab1 variant V37S VH/P44A, Y49A VL (antibody, name in Kabat numbering, V domains shown)
VH: B2 VH with V37S, I105F
VL: B2 VL with P44A, Q46L
notes: as for B2
B13: Anti-IL-12 antibody Ab1 variant L45Q VH/P44A, Y49A VL (antibody, name in Kabat numbering, V domains shown)
VH: B2 VH with L45Q, I105F
VL: B2 VL with P44A, Q46L
notes: as for B2
B14: Anti-IL-12 antibody Ab1 variant -/F98M VL (antibody)
heavy: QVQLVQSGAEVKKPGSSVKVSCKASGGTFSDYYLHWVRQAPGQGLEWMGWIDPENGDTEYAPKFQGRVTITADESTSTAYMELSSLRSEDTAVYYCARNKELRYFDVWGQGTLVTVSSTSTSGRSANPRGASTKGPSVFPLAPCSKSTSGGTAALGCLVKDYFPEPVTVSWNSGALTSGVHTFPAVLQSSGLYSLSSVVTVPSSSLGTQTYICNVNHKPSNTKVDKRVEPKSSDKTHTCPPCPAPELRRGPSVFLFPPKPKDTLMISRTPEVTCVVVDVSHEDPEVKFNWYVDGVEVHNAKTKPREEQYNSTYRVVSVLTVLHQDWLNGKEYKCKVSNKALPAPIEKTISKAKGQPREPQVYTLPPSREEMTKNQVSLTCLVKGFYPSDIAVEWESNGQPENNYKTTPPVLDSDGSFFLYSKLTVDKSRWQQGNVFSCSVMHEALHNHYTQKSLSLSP
light: B1 light with F98M
notes: as for B2
B15: Anti-IL-12 antibody Ab1 variant F100aI VH/- (antibody, name in Kabat numbering, V domains shown)
VH: B2 VH
VL: B2 VL with Q46L, A49Y
notes: Ab1 with a CDR substitution at the VH/VL interface; Kabat numbering
B16: Anti-IL-12 antibody Ab1 variant -/F98L VL (antibody)
heavy: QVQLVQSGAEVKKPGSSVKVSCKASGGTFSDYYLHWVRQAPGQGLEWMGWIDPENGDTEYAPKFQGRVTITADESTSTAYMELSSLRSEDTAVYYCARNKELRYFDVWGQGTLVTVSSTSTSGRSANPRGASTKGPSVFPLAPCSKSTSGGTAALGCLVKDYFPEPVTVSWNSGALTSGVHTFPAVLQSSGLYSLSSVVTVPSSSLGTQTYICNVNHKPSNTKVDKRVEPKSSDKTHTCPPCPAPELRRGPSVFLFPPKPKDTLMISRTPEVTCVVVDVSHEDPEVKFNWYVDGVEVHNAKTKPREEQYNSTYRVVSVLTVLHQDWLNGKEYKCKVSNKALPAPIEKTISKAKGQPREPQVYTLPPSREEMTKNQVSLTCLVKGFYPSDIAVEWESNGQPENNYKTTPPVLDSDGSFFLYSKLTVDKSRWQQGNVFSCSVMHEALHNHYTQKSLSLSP
light: B1 light with F98L
notes: as for B2
B17: Anti-IL-12 antibody Ab1 variant F100aI VH/P44A, Y49A VL (antibody, name in Kabat numbering, V domains shown)
VH: B2 VH
VL: B2 VL with P44A, Q46L
notes: as for B2
B18: Anti-IL-12 antibody Ab1 variant -/L46Q VL (antibody, V domains shown)
VH: B2 VH with I105F
VL: B2 VL with A49Y
notes: as for B2
B19: Anti-IL-12 antibody Ab1 variant -/P44A VL (antibody, V domains shown)
VH: B2 VH with I105F
VL: B2 VL with P44A, Q46L, A49Y
notes: as for B2
B20: Anti-IL-12 antibody Ab1 variant L45Q VH/Y49A, F98M VL (antibody, name in Kabat numbering, V domains shown)
VH: B2 VH with L45Q, I105F
VL: B2 VL with Q46L, F98M
notes: as for B2
B21: Anti-IL-12 antibody Ab1 variant L45Q VH/Y49A, Y87L VL (antibody, name in Kabat numbering, V domains shown)
VH: B2 VH with L45Q, I105F
VL: B2 VL with Q46L, Y87L
notes: as for B2
B22: Anti-IL-12 antibody Ab1 variant L45Q VH/- (antibody, name in Kabat numbering, V domains shown)
VH: B2 VH with L45Q, I105F
VL: B2 VL with Q46L, A49Y
notes: as for B2
B23: Anti-IL-12 antibody Ab1 variant F100aI VH/A43Q, Y49A VL (antibody, name in Kabat numbering, V domains shown)
VH: B2 VH
VL: B2 VL with A43Q, Q46L
notes: as for B2
B24: Anti-IL-12 antibody Ab1 variant -/A43Q VL (antibody, V domains shown)
VH: B2 VH with I105F
VL: B2 VL with A43Q, Q46L, A49Y
notes: as for B2
B25: Anti-IL-12 antibody Ab1 variant V37S VH/- (antibody, name in Kabat numbering, V domains shown)
VH: B2 VH with V37S, I105F
VL: B2 VL with Q46L, A49Y
notes: as for B2
B26: Anti-IL-12 antibody Ab1 variant -/F98A VL (antibody)
heavy: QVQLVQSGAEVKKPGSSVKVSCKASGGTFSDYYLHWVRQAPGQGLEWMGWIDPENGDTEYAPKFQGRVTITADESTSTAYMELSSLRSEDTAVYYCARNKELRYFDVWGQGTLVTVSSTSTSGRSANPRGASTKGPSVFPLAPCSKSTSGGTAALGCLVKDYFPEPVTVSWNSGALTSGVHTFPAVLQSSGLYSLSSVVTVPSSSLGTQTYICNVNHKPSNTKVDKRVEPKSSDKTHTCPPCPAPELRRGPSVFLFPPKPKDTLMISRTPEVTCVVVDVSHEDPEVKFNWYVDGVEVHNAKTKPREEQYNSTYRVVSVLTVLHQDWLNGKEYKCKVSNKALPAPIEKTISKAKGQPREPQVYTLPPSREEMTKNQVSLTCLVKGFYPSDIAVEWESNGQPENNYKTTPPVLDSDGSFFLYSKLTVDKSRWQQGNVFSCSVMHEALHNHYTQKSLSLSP
light: B1 light with F98A
notes: as for B2
B27: Anti-IL-12 antibody Ab1 variant V37S VH/L46Q, Y49A, Y87M VL (antibody, name in Kabat numbering, V domains shown)
VH: B2 VH with V37S, I105F
VL: B2 VL with Y87M
notes: as for B2
B28: Anti-IL-12 antibody Ab1 variant L45Q VH/A43Q, Y49A VL (antibody, name in Kabat numbering, V domains shown)
VH: B2 VH with L45Q, I105F
VL: B2 VL with A43Q, Q46L
notes: as for B2
B29: Anti-IL-12 antibody Ab1 variant F100aI VH/Y49A, Y87L VL (antibody, name in Kabat numbering, V domains shown)
VH: B2 VH
VL: B2 VL with Q46L, Y87L
notes: as for B2
B30: Anti-IL-12 antibody Ab1 variant -/Y87A VL (antibody, V domains shown)
VH: B2 VH with I105F
VL: B2 VL with Q46L, A49Y, Y87A
notes: as for B2
B31: Anti-IL-12 antibody Ab1 variant -/P44Q VL (antibody, V domains shown)
VH: B2 VH with I105F
VL: B2 VL with P44Q, Q46L, A49Y
notes: as for B2
B32: Anti-IL-12 antibody Ab1 variant -/Y87L VL (antibody, V domains shown)
VH: B2 VH with I105F
VL: B2 VL with Q46L, A49Y, Y87L
notes: as for B2
B33: Anti-IL-12 antibody Ab1 variant G44Q VH/- (antibody, name in Kabat numbering, V domains shown)
VH: B2 VH with G44Q, I105F
VL: B2 VL with Q46L, A49Y
notes: as for B2
B34: Anti-IL-12 antibody Ab1 variant V37S VH/L46Q, Y49A VL (antibody, name in Kabat numbering, V domains shown)
VH: B2 VH with V37S, I105F
VL: B2 VL
notes: as for B2
B35: Anti-IL-12 antibody Ab1 variant V37Q VH/- (antibody, name in Kabat numbering, V domains shown)
VH: B2 VH with V37Q, I105F
VL: B2 VL with Q46L, A49Y
notes: as for B2
B36: Anti-IL-12 antibody Ab1 variant V37S VH/A43Q, Y49A VL (antibody, name in Kabat numbering)
heavy: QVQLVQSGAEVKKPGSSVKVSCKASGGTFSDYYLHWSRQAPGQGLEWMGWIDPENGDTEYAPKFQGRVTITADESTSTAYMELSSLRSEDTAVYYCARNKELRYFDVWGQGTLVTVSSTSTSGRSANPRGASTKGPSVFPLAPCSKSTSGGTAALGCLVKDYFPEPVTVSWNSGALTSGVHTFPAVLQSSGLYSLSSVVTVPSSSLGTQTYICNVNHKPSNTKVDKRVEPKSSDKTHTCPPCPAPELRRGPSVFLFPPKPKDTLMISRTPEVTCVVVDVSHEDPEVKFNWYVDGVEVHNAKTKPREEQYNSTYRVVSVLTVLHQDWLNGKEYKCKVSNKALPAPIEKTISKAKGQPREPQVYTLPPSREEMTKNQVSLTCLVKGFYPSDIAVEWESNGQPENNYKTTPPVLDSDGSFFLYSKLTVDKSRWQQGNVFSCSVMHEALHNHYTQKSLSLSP
light: B1 light with A43Q, Y49A
notes: as for B2

Biological target: T1, human IL-12
Assay: SPR (Biacore T200), 37 C, pH 7.4; captured antibody, IL-12 analyte
Procedure: The affinity of anti-IL-12 antibodies binding to human IL-12 at pH 7.4 were determined at 37 degrees C. using Biacore T200 instrument (Cytiva). Anti-human Fc antibody (Cytiva) was immobilized onto all flow cells (FCs) of a CM4 sensor chip using amine coupling kit (Cytiva). All antibodies and analytes were prepared in ACES pH 7.4 containing 20 mM ACES, 150 mM NaCl, 0.05% Tween 20, 0.005% NaN₃. Each antibody was captured onto the sensor surface by anti-human Fc antibody. Antibody capture levels were aimed at 50 response unit (RU). 5 nM of human IL-12 were injected as analyte, followed by dissociation. Sensor surface was regenerated each cycle with 3M MgCl₂. […] Based on the results in Table 9, it is observed that binding kinetics of anti-IL-12 antibody AbI variants towards IL-12 were not drastically changed compared to control (−/−).

| Kd [nM] | Binder |
| --- | --- |
| 0.948 | B1 |
| 3.48 | B2 |
| 3.56 | B3 |
| 1.17 | B4 |
| 0.982 | B5 |
| 1.74 | B6 |
| 1.27 | B7 |
| 2.82 | B8 |
| 3.68 | B9 |
| 1.22 | B10 |
| 1.44 | B11 |
| 2.96 | B12 |
| 2.74 | B13 |
| 0.685 | B14 |
| 0.571 | B15 |
| 0.499 | B16 |
| 1.25 | B17 |
| 1.62 | B18 |

| Kd [nM] | Binder |
| --- | --- |
| 0.858 | B19 |
| 3.27 | B20 |
| 3.61 | B21 |
| 1.3 | B22 |
| 1.33 | B23 |
| 0.937 | B24 |
| 0.789 | B25 |
| 1.03 | B26 |
| 3.87 | B27 |
| 2.23 | B28 |
| 2.1 | B29 |
| 1.21 | B30 |
| 0.94 | B31 |
| 1.46 | B32 |
| 0.793 | B33 |
| 3.06 | B34 |
| 1.48 | B35 |
| 1.49 | B36 |
